Experimental data: patent publication US20250043016A1 (SANYOU BIOPHARMACEUTICALS, published 2025)

Target: T1, recombinant human TNFR2 (SinoBiological, 10417-H03H) (human, UniProt P20333 23-257)
T1 construct: Bought protein; also called human recombinant TNFR2
T1 sequence (looked up): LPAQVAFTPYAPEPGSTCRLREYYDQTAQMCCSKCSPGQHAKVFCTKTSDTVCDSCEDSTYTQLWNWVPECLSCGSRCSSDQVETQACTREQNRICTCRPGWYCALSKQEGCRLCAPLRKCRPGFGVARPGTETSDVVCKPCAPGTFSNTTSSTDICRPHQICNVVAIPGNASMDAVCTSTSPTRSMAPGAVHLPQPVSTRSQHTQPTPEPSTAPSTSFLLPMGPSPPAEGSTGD
Assay: ELISA on plate-coated recombinant human TNFR2, detection with anti-camelid-VHH-HRP; the axis is the lysate concentration
Description: The prepared positive clone lysate was subjected to ELISA affinity detection. The specific method was as follows: a 96-well ELISA plate was coated with 2 μg/mL recombinant human TNFR2 and incubated overnight at 4° C.; the next day, the well plate was washed 3 times with PBST, 5% skim milk was added, and blocking was performed for 2 h; subsequently, the well plate was washed 3 times with PBST, gradiently diluted positive clone lysates were added, and incubation was performed for 1 h; subsequently, the well plate was washed 3 times with PBST, Rabbit Anti-Camelid-VHH-HRP (Genescript, A01861-200) diluted at 1:8000 was added, and incubation was performed for 1 h; subsequently, the well plate was washed 6 times with PBST, TMB (SurModics, TMBS-1000-01) was added for color development in the dark for 5-10 min, and 2 M HCl was added to stop the reaction according to the color development results; the values at OD450 were read by a microplate reader (Molecular Devices, SpecterMax 190) and fitted by four parameters.

B1: NB92-161 VHH (positive clone lysate from E. coli) (VHH)
VHH: EVQLVESGGGLVQPGGSLRLSCAASGSIFSINDMGWYRQAPGKQRELVAAIGRGGGSTNYADSVKGRFTISRDNAKNTVYLQMNSLKPEDTAVYYCHAEISQLTWAFRDYWGQGTQVTVSS
notes: Tested as crude bacterial lysate from the phage display vector
- EC50 (read off the curve): ~0.2 µg/mL
